Assays:
[1] = target: Rac1 (Homo sapiens) (UniProt P63000); conditions: cited from earlier work
[2] = target: Cdc42 (Homo sapiens) (UniProt P60953); conditions: cited from earlier work
[3] = target: Q61L Cdc42·[3H]GTP (UniProt P60953); assay: scintillation proximity assay (competition); competitor titrated into 30 nM [3H]GTP·Rac1 or [3H]GTP·Cdc42 and 30 nM GST-p50 RhoGAP immobilised on fluoromicrospheres via an anti-GST antibody; partial competition model for RLIP76 GAP and didomain, full competition for GAP insert and free p50 RhoGAP
Q61L Cdc42·[3H]GTP, sequence (P60953 whole entry Q61L): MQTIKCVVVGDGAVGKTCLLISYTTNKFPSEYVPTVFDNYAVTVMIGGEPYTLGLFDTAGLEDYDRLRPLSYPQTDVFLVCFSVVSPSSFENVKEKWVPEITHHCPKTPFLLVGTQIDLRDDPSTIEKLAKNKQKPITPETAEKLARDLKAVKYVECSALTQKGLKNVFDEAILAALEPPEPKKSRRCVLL

[4] = target: Q61L Rac1·[3H]GTP (UniProt P63000); assay: as above
[5] = target: GST-p50 RhoGAP; assay: scintillation proximity assay (direct); GST-p50 RhoGAP on SPA beads; [3H]GTP·Cdc42 or [3H]GTP·Rac1 in solution; values used as fixed Kd in the competition fits

Cdc42 (Homo sapiens), sequence (P60953 1-188): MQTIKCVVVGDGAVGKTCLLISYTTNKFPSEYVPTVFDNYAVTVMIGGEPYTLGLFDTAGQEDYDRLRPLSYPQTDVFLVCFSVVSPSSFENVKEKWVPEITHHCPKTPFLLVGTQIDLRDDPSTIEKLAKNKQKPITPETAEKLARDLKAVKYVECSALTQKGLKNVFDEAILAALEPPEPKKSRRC

Substance: p50 RhoGAP (from UniProt Q07960)
- Kd [1]: 18 nM
- Kd [2]: 24 nM

Substance: His-RLIP76 GAP domain (residues 184-380) (from UniProt Q15311 184-380) (domain or fragment)
- Kd [3]: 6190 nM
- Kd [4]: 1680 nM

Substance: His-RLIP76 GAP-GBD didomain (residues 184-446) (from UniProt Q15311 184-446) (domain or fragment)
- Kd [3]: 5590 nM
- Kd [4]: 2340 nM

Substance: Q61L Cdc42·[3H]GTP (from UniProt P60953 1-191) (natural protein)
- Kd [5]: 80 nM

Substance: untagged p50 RhoGAP (domain or fragment)
- Kd [3]: 247 nM
- Kd [4]: 150 nM

— paper PMC3852207
